Source: the supplement of paper PMC7877785
± gives the uncertainty stated by the source.

Assay: self-splicing fitness, log relative to wild type (ln ratio); higher = more splicing; Tetrahymena group I intron in knt gene, E. coli kanamycin selection, DiMSum; sequences stand for … in CUCUCU…GGAGGGAAAAGUUAUCAGGCAUGCACCUGGUAGCUAGUCUUUAAACCAAUAGAUUGCAUCGGUUUAAAAGGCAAGACCGUCAAAUUGCGGGAAAGGGGUCAACAGCCGUUCAGUACCAAGUCUCAGGGGAAACUUUGAGAUGGCCUUGCAAAGGGUAUGGUAAUAAGCUGACGGACAUGGUCCUAACCACGCAGCCAAGUCCUAAGUCAACAGAUCUUCUGUUGAUAUGGAUGCAGUUCACAGACUAAAUGUCGGUCGGGGAAGAUGUAUUCUUCUCAUAAGAUAUAGUCGGACCUCUCCUUAAUGGGAGCUAGCGGAUGAAGUGAUGCAACACUGGAGCCGCUGGGAACUAAUUUGUAUGCGAAAGUAUAUUGAUUAGUUUUGGAGUACUCGUGGUCG
Procedure, shortened: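 Colonies from six replicate transformations of E. coli BL21(DE3) were pooled and amplicon-sequenced on an Illumina HiSeq 2500. The library placed an intron with all eight P1ex-region nucleotides randomised inside the knt kanamycin-resistance gene on pET-22b(+), and cells grew overnight at 37°C or 30°C on LB agar with or without 25 μg/mL kanamycin (plus 100 μg/mL carbenicillin, 50 μM IPTG, 0.2% rhamnose). Fitness is the DiMSum error-weighted combination of wild-type-normalised replicate fold changes, kanamycin versus none.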

Row | Sequence | self-splicing fitness (ln) (30 °C) | self-splicing fitness (ln) (37 °C)
1 | GCACAGCAAUAUUACGAUGG | -0.945 ± 0.072 | -1.06 ± 0.081
2 | GCACAGCAAUAUUACGAUUG | -2.27 ± 0.077 | -0.657 ± 0.083
3 | GCACAGCAAUAUUACGCAAA | -1.72 ± 0.15 | -0.898 ± 0.16
4 | GCACAGCAAUAUUACGCAGU | -1.65 ± 0.12 | -1.32 ± 0.13
5 | GCACAGCAAUAUUACGCCCU | -0.527 ± 0.094 | 0.00502 ± 0.11
6 | GCACAGCAAUAUUACGCUUU | -0.861 ± 0.055 | -0.0512 ± 0.068
7 | GCACAGCAAUAUUACGGAUG | -2.18 ± 0.075 | -1.61 ± 0.096
8 | GCACAGCAAUAUUACGGCAC | -0.752 ± 0.061 | -0.122 ± 0.073
9 | GCACAGCAAUAUUACGGCCU | -1.66 ± 0.11 | -0.461 ± 0.12
10 | GCACAGCAAUAUUACGGGGA | -2.29 ± 0.11 | -1.5 ± 0.1
11 | GCACAGCAAUAUUACGGGUC | -3.81 ± 0.17 | -1.62 ± 0.097
12 | GCACAGCAAUAUUACGGUAG | -3.61 ± 0.15 | -1.98 ± 0.11
13 | GCACAGCAAUAUUACGGUUC | -0.415 ± 0.055 | -0.0499 ± 0.073
14 | GCACAGCAAUAUUACGUACU | -1.2 ± 0.069 | -1.2 ± 0.094
15 | GCACAGCAAUAUUACGUCAA | -0.993 ± 0.079 | -0.565 ± 0.082
16 | GCACAGCAAUAUUACGUCUC | -0.14 ± 0.056 | 0.38 ± 0.059
17 | GCACAGCAAUAUUACGUGUU | -3.75 ± 0.089 | -2.07 ± 0.085
18 | GCACAGCAAUAUUACGUUGC | -3.95 ± 0.17 | -2.57 ± 0.17
19 | GCAGAGCAAUAUUACGAGAU | -2.04 ± 0.29 | -2.15 ± 0.39
20 | GCAGAGCAAUAUUACGAGCU | -4.1 ± 0.42 | -1.17 ± 0.26
21 | GCAGAGCAAUAUUACGAGUG | -4.02 ± 0.48 | -2.25 ± 0.26

Row | Sequence | self-splicing fitness (ln) (30 °C) | self-splicing fitness (ln) (37 °C)
22 | GCAGAGCAAUAUUACGAUGU | -4.4 ± 0.34 | -2.42 ± 0.19
23 | GCAGAGCAAUAUUACGCAAC | -1.53 ± 0.35 | -2.13 ± 0.43
24 | GCAGAGCAAUAUUACGCAAU | – | -1.61 ± 0.28
25 | GCAGAGCAAUAUUACGCGCA | -2.97 ± 0.24 | -1.61 ± 0.17
26 | GCAGAGCAAUAUUACGGAGA | – | -2.09 ± 0.43
27 | GCAGAGCAAUAUUACGGAUC | -2.59 ± 0.34 | -1.6 ± 0.29
28 | GCAGAGCAAUAUUACGGCAU | -3.03 ± 0.17 | -0.473 ± 0.11
29 | GCAGAGCAAUAUUACGGCUU | -1.92 ± 0.27 | -0.671 ± 0.21
30 | GCAGAGCAAUAUUACGGUUG | -3.01 ± 0.34 | -2.87 ± 0.47
31 | GCAGAGCAAUAUUACGUCAA | -2.73 ± 0.45 | –
32 | GCAGAGCAAUAUUACGUGAG | -1.62 ± 0.08 | -1.65 ± 0.1
33 | GCAGAGCAAUAUUACGUGCU | -3.24 ± 0.15 | -2.73 ± 0.22
34 | GCAGAGCAAUAUUACGUGUG | -2.07 ± 0.22 | -2.63 ± 0.25
35 | GCAGAGCAAUAUUACGUUAG | -3.42 ± 0.26 | -1.61 ± 0.17
36 | GCAUAGCAAUAUUACGACAU | -1.03 ± 0.013 | -0.295 ± 0.032
37 | GCAUAGCAAUAUUACGACGG | – | -1.01 ± 0.41
38 | GCAUAGCAAUAUUACGAGCC | -2.61 ± 0.2 | -2.49 ± 0.33
39 | GCAUAGCAAUAUUACGAGGG | -3.43 ± 0.23 | -1.69 ± 0.17
40 | GCAUAGCAAUAUUACGAUGA | -0.554 ± 0.079 | 0.0691 ± 0.07
41 | GCAUAGCAAUAUUACGCAAG | -3.49 ± 0.41 | -2.31 ± 0.33
42 | GCAUAGCAAUAUUACGCAGC | – | -1.68 ± 0.44

Row | Sequence | self-splicing fitness (ln) (30 °C) | self-splicing fitness (ln) (37 °C)
43 | GCAUAGCAAUAUUACGCCAU | -4.39 ± 0.46 | -2.23 ± 0.28
44 | GCAUAGCAAUAUUACGCCCU | -1.78 ± 0.35 | -0.121 ± 0.33
45 | GCAUAGCAAUAUUACGCCUG | -1.22 ± 0.081 | -1.49 ± 0.1
46 | GCAUAGCAAUAUUACGCGCC | -3.02 ± 0.49 | -1.93 ± 0.36
47 | GCAUAGCAAUAUUACGCUGG | – | -2.15 ± 0.49
48 | GCAUAGCAAUAUUACGGCAC | -1.15 ± 0.14 | -0.425 ± 0.15
49 | GCAUAGCAAUAUUACGGGAU | -1.41 ± 0.085 | -0.646 ± 0.11
50 | GCAUAGCAAUAUUACGGGCC | – | -1.97 ± 0.27
51 | GCAUAGCAAUAUUACGGGGG | -2.53 ± 0.23 | -2.13 ± 0.23
52 | GCAUAGCAAUAUUACGGUGC | -3.71 ± 0.46 | –
53 | GCAUAGCAAUAUUACGGUUA | -1.34 ± 0.093 | -0.638 ± 0.084
54 | GCAUAGCAAUAUUACGUAGA | -2.41 ± 0.16 | -0.999 ± 0.17
55 | GCAUAGCAAUAUUACGUGUG | -3.17 ± 0.14 | -1.57 ± 0.12
56 | GCAUAGCAAUAUUACGUUCG | -1.43 ± 0.08 | 0.166 ± 0.09
57 | GCAUAGCAAUAUUACGUUGC | -3.65 ± 0.21 | -1.72 ± 0.21
58 | GCCAAGCAAUAUUACGACAC | -0.962 ± 0.06 | -0.0161 ± 0.08
59 | GCCAAGCAAUAUUACGACAG | -3.63 ± 0.2 | -3.8 ± 0.39
60 | GCCAAGCAAUAUUACGAGGU | -3.83 ± 0.18 | -2.74 ± 0.26
61 | GCCAAGCAAUAUUACGCAUG | -4.41 ± 0.46 | -2.22 ± 0.3
62 | GCCAAGCAAUAUUACGCCUU | -2.83 ± 0.13 | -1.26 ± 0.12
